Measured values: the Immune Epitope Database (IEDB)

Tests used:
HLA-B*51:01 = assay: IEDB peptide-MHC binding, purified MHC/competitive/radioactivity; filed as Kd, often an IC50 or EC50 that approximates it; ≥ and ≤ were set here for values at or beyond the usual limits of such assays
HLA-B*07:02 = assay: as above
HLA-B*54:01 = assay: as above
HLA-B*35:01 = assay: as above
HLA-B*53:01 = assay: as above
HLA-A*02:06 = assay: as above
HLA-A*68:02 = assay: as above
HLA-B*15:01 = assay: as above
HLA-A*02:02 = assay: as above; settings: source organism: Vaccinia virus WR
HLA-A*02:03 = assay: as above; settings: source organism: Vaccinia virus WR
HLA-A*26:01 = assay: as above
HLA-A*23:01 = assay: as above; settings: source organism: Dengue virus 3 Martinique/1243/1999
HLA-B*08:01 = assay: as above; settings: source organism: Vaccinia virus WR
HLA-A*01:01 = assay: as above; settings: source organism: Dengue virus 4 Philippines/H241/1956
HLA-A*30:02 = assay: as above; settings: source organism: Dengue virus 4 Philippines/H241/1956
HLA-A*24:03 = assay: IEDB peptide-MHC binding, purified MHC/direct/fluorescence; filed as Kd, often an IC50 or EC50 that approximates it; ≥ and ≤ were set here for values at or beyond the usual limits of such assays; settings: source organism: West Nile virus
[1] = source organism: Mammarenavirus lassaense
[2] = source organism: Lymphocytic choriomeningitis virus (strain Armstrong)
[3] = source organism: Dengue virus 1 Brazil/97-11/1997
[4] = source organism: Dengue virus 3 Martinique/1243/1999
[5] = source organism: Dengue virus 4 Philippines/H241/1956
[6] = source organism: Mammarenavirus brazilense
[7] = source organism: Triticum aestivum
[8] = source organism: Vaccinia virus WR
[9] = source organism: SARS coronavirus Tor2

MPDCGMSVL
Kd (HLA-B*51:01; [1]): 2810 nM
Kd (HLA-B*07:02; [1]): 100 nM
Kd (HLA-B*54:01; [1]): 2720 nM
Kd (HLA-B*35:01; [1]): 4.63 nM
Kd (HLA-B*53:01; [1]): 83.3 nM

MPEWANFKF
Kd (HLA-B*51:01; [2]): ≥ 28200 nM
Kd (HLA-B*07:02; [2]): 769 nM
Kd (HLA-B*54:01; [2]): 1370 nM
Kd (HLA-B*35:01; [2]): 9.29 nM
Kd (HLA-B*53:01; [2]): 13.5 nM

MSIPATLFV
Kd (HLA-A*02:06; [3]): 12.1 nM
Kd (HLA-A*68:02; [3]): 0.63 nM

MSTYGWNIV
Kd (HLA-A*68:02; [4]): 39.4 nM

MVMTTTANWL
Kd (HLA-A*68:02; [5]): 6.51 nM

MVRILIGFLV
Kd (HLA-A*68:02; [5]): 401 nM

NPIVLHNGM
Kd (HLA-B*51:01; [6]): ≥ 32400 nM
Kd (HLA-B*07:02; [6]): 1760 nM
Kd (HLA-B*54:01; [6]): ≥ 78100 nM
Kd (HLA-B*35:01; [6]): 440 nM
Kd (HLA-B*53:01; [6]): 10500 nM

NPQAQGSV
Kd (HLA-B*51:01; [7]): 6060 nM
Kd (HLA-B*07:02; [7]): 3660 nM
Kd (HLA-B*54:01; [7]): 10900 nM
Kd (HLA-B*35:01; [7]): ≥ 87800 nM
Kd (HLA-B*53:01; [7]): ≥ 87700 nM

NTNKHMLEF
Kd (HLA-B*15:01; [8]): 11.8 nM

PPALNCYWPL
Kd (HLA-B*51:01; [9]): 1190 nM
Kd (HLA-B*07:02; [9]): 12700 nM
Kd (HLA-B*54:01; [9]): ≥ 37900 nM
Kd (HLA-B*35:01; [9]): ≥ 57900 nM
Kd (HLA-B*53:01; [9]): ≥ 69900 nM

QLFKYVPSA
Kd (HLA-A*02:06; [8]): 349 nM
Kd (HLA-B*15:01; [8]): 377 nM
Kd (HLA-A*02:02): 12.3 nM
Kd (HLA-A*02:03): 7.81 nM

QLKGQGKSRL
Kd (HLA-A*02:06; source organism: Homo sapiens): ≥ 42200 nM
Kd (HLA-A*68:02; source organism: Homo sapiens): ≥ 60000 nM

QPFLQPQLPY
Kd (HLA-B*51:01; [7]): 14500 nM
Kd (HLA-B*07:02; [7]): 950 nM
Kd (HLA-B*54:01; [7]): ≥ 46600 nM
Kd (HLA-B*35:01; [7]): 28.6 nM
Kd (HLA-B*53:01; [7]): 4580 nM

QPGLLSYVI
Kd (HLA-B*51:01; [6]): 2260 nM
Kd (HLA-B*07:02; [6]): 12200 nM
Kd (HLA-B*54:01; [6]): 5060 nM
Kd (HLA-B*35:01; [6]): 1100 nM
Kd (HLA-B*53:01; [6]): 308 nM

QPQQLPQF
Kd (HLA-B*51:01; [7]): ≥ 87300 nM
Kd (HLA-B*07:02; [7]): 1460 nM
Kd (HLA-B*54:01; [7]): ≥ 87700 nM
Kd (HLA-B*35:01; [7]): ≥ 87800 nM
Kd (HLA-B*53:01; [7]): ≥ 87700 nM

RPEMQEFEY
Kd (HLA-B*51:01; [8]): ≥ 77500 nM
Kd (HLA-B*07:02; [8]): ≥ 68800 nM
Kd (HLA-B*54:01; [8]): ≥ 78100 nM
Kd (HLA-B*35:01; [8]): 8.09 nM
Kd (HLA-B*53:01; [8]): 16.7 nM

RPLMESELV
Kd (HLA-B*51:01; [9]): 2370 nM
Kd (HLA-B*07:02; [9]): 8200 nM
Kd (HLA-B*54:01; [9]): ≥ 47500 nM
Kd (HLA-B*35:01; [9]): ≥ 24400 nM
Kd (HLA-B*53:01; [9]): ≥ 42200 nM

RTNAAMGAVF
Kd (HLA-B*15:01; [4]): 19.4 nM
Kd (HLA-A*26:01; [4]): ≥ 57300 nM
Kd (HLA-A*23:01): 2050 nM

SASSMVNGV
Kd (HLA-A*68:02; source organism: Dengue virus 2 Jamaica/1409/1983): 24.3 nM

SLPLPNFSSL
Kd (HLA-A*02:06; source organism: Homo sapiens): 641 nM
Kd (HLA-A*68:02; source organism: Homo sapiens): 1.19 nM

SMISRHCCI
Kd (HLA-B*15:01; [8]): 80.7 nM
Kd (HLA-B*08:01): 1.25 nM

SPKFTTSLSL
Kd (HLA-B*51:01; [9]): 1090 nM
Kd (HLA-B*07:02; [9]): 8.39 nM
Kd (HLA-B*54:01; [9]): ≥ 28800 nM
Kd (HLA-B*35:01; [9]): 7920 nM
Kd (HLA-B*53:01; [9]): 1300 nM

SSALLWMASV
Kd (HLA-A*68:02; [3]): 46.7 nM

STANIFRGSY
Kd (HLA-B*15:01; [5]): 4.87 nM
Kd (HLA-A*26:01; [5]): 23.6 nM
Kd (HLA-A*01:01): 1140 nM
Kd (HLA-A*30:02): 2.08 nM

TSAGVNMCTL
Kd (HLA-A*68:02; [3]): 6.97 nM

TSNHGVTATI
Kd (HLA-A*68:02; source organism: Dengue virus 4 Thailand/0348/1991): 129 nM

VSVNNVCHM
Kd (HLA-B*15:01; source organism: Vaccinia virus Copenhagen): 13.9 nM

VYRIMTRGL
Kd (HLA-A*24:03): 580 nM

YPLGQGSF
Kd (HLA-B*51:01; [7]): 1140 nM
Kd (HLA-B*07:02; [7]): 5550 nM
Kd (HLA-B*54:01; [7]): ≥ 53800 nM
Kd (HLA-B*35:01; [7]): 1520 nM
Kd (HLA-B*53:01; [7]): 1660 nM

YTPEGIIPTL
Kd (HLA-A*02:06; [5]): 21.3 nM
Kd (HLA-A*68:02; [5]): 264 nM

YVVIGLLFMI
Kd (HLA-A*02:06; [3]): 140 nM
Kd (HLA-A*68:02; [3]): 102 nM
